From patent publication US10428127B2, “Cyclic, amyloid beta-binding peptides and the use thereof” (FORSCHUNGSZENTRUM JUELICH GMBH, priority 2013, dated 2019)
“Also recorded” adds a separate entry of the source. Non-standard residues stand in square brackets, D forms with d. No end group written: not given here.

Columns and labels:
amyloid beta fibrils = target: T1, amyloid beta fibrils (Homo sapiens, UniProt P05067); assay: SPR binding kinetics, single-cycle, heterogeneous binding model (FIG. 4); conditions: 25° C., high-affinity site
T1 construct: 1 mg lyophilized Aß1-42 and N-terminal biotinylated Aß1-42; biotin (only on part of the peptide molecules)
T1 sequence (P05067 672-713): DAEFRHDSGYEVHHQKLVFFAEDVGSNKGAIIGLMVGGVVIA
Experimental: (§1) 1 mg lyophilized Aß1-42 and N-terminal biotinylated Aß1-42 were each dissolved in 1 ml 100% hexafluoroisopropanol (HFIP) and dissolved overnight at room temperature. For the oligomer and fibril preparation, non-biotinylated Aß was used with N-terminal biotinylated Aß at a ratio of 1:10 and the HFIP was evaporated (Concentrator 5301 from Eppendorf). The resultant Aß film, at a final concentration of 80 μM, was placed in sodium phosphate buffer (10 mM, pH 7.4) and incubated (RT, 600 rpm). The incubation time was 3 h for the oligomer preparation, and 24 h for the fibril preparation. 100% N-terminal biotinylated Aß1-42 without incubation was used for the preparation of monomers.
(§2) The density gradient centrifugation was carried out subsequent to the Aß preparation to purify the respective Aß species according to the size of the same. An iodixanol gradient in 10 mM sodium phosphate buffer, pH 7.4 with rising concentrations from 50% to 5% v/v iodixanol was used for this purpose. 100 μl of the Aß sample was applied and separated by way of ultracentrifugation (3 h, 4° C., 259000 g). […]
(§3) Binding kinetics were likewise measured by way of SPR spectroscopy using a T200 device from Biacore (GE Healthcare). […] The binding curves were evaluated by way of kinetic fit models (heterogeneous binding model) using the Biacore T200 evaluation software (version 2.0). […]

amyloid beta oligomers = target: T2, amyloid beta oligomers (Homo sapiens, UniProt P05067); assay: SPR binding kinetics, single-cycle, heterogeneous binding model (FIG. 3)
T2 construct: 1 mg lyophilized Aß1-42 and N-terminal biotinylated Aß1-42; biotin (only on part of the peptide molecules)
T2 sequence (P05067 672-713): as above
Experimental: as §1
The density gradient centrifugation was carried out subsequent to the Aß preparation to purify the respective Aß species according to the size of the same. An iodixanol gradient in 10 mM sodium phosphate buffer, pH 7.4 with rising concentrations from 50% to 5% v/v iodixanol was used for this purpose. 100 μl of the Aß sample was applied and separated by way of ultracentrifugation (3 h, 4° C., 259000 g). Subsequently, the gradient was fractionated into 14 fractions, 140 μl each. Monomeric Aß are present in the first two top fractions, Aß oligomers in fractions 4 to 6, and Aß fibrils in fractions 11 to 13.
A T200 from Biacore (GE Healthcare) was used for SPR spectroscopy. The Aß species purified by way of density gradient centrifugation were directly immobilized on a sensor chip (Series S Sensor Chips SA) according to the manufacturer's instructions by way of biotin-streptavidin coupling. 1×PBS was used as the running buffer. Loading took place at 25° C. and a flow rate of 5 μl/min. Subsequently, the flow cells were freed from non-specifically bound ligand overnight at a steady flow of 30 μl/min.
Binding kinetics were likewise measured by way of SPR spectroscopy using a T200 device from Biacore (GE Healthcare). The standard conditions are 25° C. and a flow rate of 30 μl/min. Different lyophilizates of the D peptides were placed in the 1×PBS running buffer and serially diluted. The method used was a “single-cycle” kinetics method, wherein five increasing analyte concentrations were pumped over the immobilized flow cells. The contact times selected, depending on the analyte, were 90 to 120 s for association and dissociation and 1800 to 5400 s for the final dissociation. The sensorgrams were double referenced with the aid of an unloaded flow cell and the running buffer that was used. The binding curves were evaluated by way of kinetic fit models (heterogeneous binding model) using the Biacore T200 evaluation software (version 2.0).
FIGS. 2 to 4 show the results on the binding behavior of the cyclized peptides according to the invention (affinity study). The figures show data for the kinetic evaluation of the binding strength of the various candidates to amyloid beta monomers (FIG. 2), amyloid beta oligomers (FIG. 3), and amyloid beta fibrils (FIG. 4). The two binding constants that result when fitting a heterogeneous binding model are shown in each case, plotted as white bars and black bars. It is important to remember that a logarithmic scale is shown here, which means that minor differences in the bar size represent major differences in the dissociation constant KD. White bars are the respective low-affinity sites and the binding strengths thereof, and black bars show the high-affinity binding sites and the binding strengths thereof. […]

transgenic AD mice = conditions: oral administration with drinking water; cited from earlier work
A beta monomer = target: T3, A beta monomer (Homo sapiens, UniProt P05067); assay: Density gradient centrifugation fractions treated with peptide, A beta size distribution (FIG. 1); assay type: biochemical; conditions: fractions 1 to 2 of density gradient
T3 construct: approximately 20 nM or 1.8 ng Aß 1-42
T3 sequence (P05067 672-713): as above
Experimental: (§4) Thereafter, the resultant fractions are treated with and without an active ingredient and determined by way of RP-HPLC, for example. In this way, it is possible to determine the effectiveness of the active ingredient.
(§5) A further method is described hereafter. The so-called QIAD (quantitative determination of interference with Aß aggregate size distribution) test can be used for the quantitative analysis of active ingredients. The method for quantitatively analyzing the influence of an active ingredient on the particle size distribution of amyloid peptides and/or proteins in a sample comprises the following steps. […] This change is established quantitatively. […] Finally, the concentration of A beta in the respective fraction is determined by completely denaturing the A beta species during a reverse phase (RP-)HPLC carried out subsequent to the fractionating. […] Eluting A beta is detected by way of UV absorption at 215 nm. […] Depending on the fraction, the mean value from multiple, for example six, experiments conducted independently of one another can be calculated with the resulting standard deviation. The advantage of HPLC analysis is that detection is very sensitive (such as approximately 20 nM or 1.8 ng Aß 1-42) and quantification is reliable independently of the state of aggregation and the solvent. […]

A beta oligomers = target: T4, A beta oligomers (Homo sapiens, UniProt P05067); assay: as above; assay type: biochemical; conditions: fractions 4 to 8 (or 4 to 10) of density gradient; peptide 20 μM; versus control and linear D3
T4 construct: approximately 20 nM or 1.8 ng Aß 1-42
T4 sequence (P05067 672-713): as above
Experimental: as §4, §5

APPsDI mice = assay: Morris water maze (MWW) test, spatial memory (FIG. 5); assay type: in vivo; conditions: five consecutive days, compared to saline
Experimental: The test measures the spatial memory of animals, which here were genetically engineered APPsDI mice.
The time is measured in seconds that an animal requires to locate a platform hidden closely beneath the water surface in a water tank. This is measured in several experiments per day on several consecutive days. […] The search time is plotted in seconds on five consecutive days for mice that were treated with the peptide according to the invention cD3R (SEQ ID NO. 5), compared to placebo experiments (saline).

amyloid beta monomers = target: T5, amyloid beta monomers (Homo sapiens, UniProt P05067); assay: SPR binding kinetics, single-cycle, heterogeneous binding model (FIG. 2); conditions: 25° C., high-affinity site
T5 construct: 100% N-terminal biotinylated Aß1-42 without incubation
T5 sequence (P05067 672-713): as above
Experimental: as §1, §2, §3

In the case of “rkrtrlhthrnr (cyclo([dR][dK][dR][dT][dR][dL][dH][dT][dH][dR][dN][dR])) [cD3P2K]”, the “KD (kinetics), binding strength to amyloid beta fibrils” value (amyloid beta fibrils) is reported as “sub-pM binding range”.
In the case of “rprtrlhthrnr ([dR][dP][dR][dT][dR][dL][dH][dT][dH][dR][dN][dR]) [D3, D-enantiomeric linear peptide known from WO 02/081505 A2]”, the “binding sites bound on amyloid beta oligomer” value (amyloid beta oligomers; fit of SPR binding data) is listed as “binds only a low-affinity site, but not a high-affinity site”, the “cognitive abilities of treated mice” value (transgenic AD mice) is listed as “significantly improved cognitive abilities” and the “plaque in treated mice” value (transgenic AD mice) is listed as “considerably less plaque”.
In the case of “rprtrlhthrnr (cyclo([dR][dP][dR][dT][dR][dL][dH][dT][dH][dR][dN][dR]); SMILES CC(C)C[C@H]1NC(=O)[C@@H](CCCNC(=N)N)NC(=O)[C@@H]([C@H](C)O)NC(=O)[C@@H](CCCNC(=N)N)NC(=O)[C@H]2CCCN2C(=O)[C@@H](CCCNC(=N)N)NC(=O)[C@@H](CCCNC(=N)N)NC(=O)[C@@H](CC(N)=O)NC(=O)[C@@H](CCCNC(=N)N)NC(=O)[C@@H](Cc2c[nH]cn2)NC(=O)[C@@H]([C@H](C)O)NC(=O)[C@@H](Cc2c[nH]cn2)NC1=O) [cD3, cyclized D3, N-terminal amino group and C-terminal carboxyl group coupled by an amide bond]”, the “influence on the A beta monomer concentration” value (A beta monomer) is reported as “no influence”, the “elimination / decrease of A beta oligomer concentration” value (A beta oligomers) is reported as “eliminates the oligomers in fractions 4 to 8 even more efficiently than linear D3; also recorded: clear decrease in the A beta oligomer concentration” and the “number of low-affinity sites relative to high-affinity sites” value (amyloid beta oligomers; from Rmax 79/21%) is reported as “approximately 4 times”. For the same substance, the “Rmax, contribution of high-affinity site (KD2) to RU total loading” value (amyloid beta oligomers; high-affinity site (KD2)) was 21% and the “Rmax, contribution of low-affinity site to RU total loading” value (amyloid beta oligomers; low-affinity site (white bar)) was 79%.
With “rprtrlhthrnrr (cyclo([dR][dP][dR][dT][dR][dL][dH][dT][dH][dR][dN][dR][dR])) [cD3r]” the “learning (search time to locate hidden platform)” value (APPsDI mice) was “significant”, the “KD (kinetics), binding strength to amyloid beta fibrils” value (amyloid beta fibrils) was “does very well” and the “KD (kinetics), binding strength to amyloid beta oligomers” value (amyloid beta oligomers; SPR, 25° C., high-affinity site, compared with other cyclized peptides) was “binds even more strongly by two orders of magnitude than the other cyclized peptides”. The “KD (kinetics), binding affinity to amyloid beta monomers” value (amyloid beta monomers) was “particularly high affinity”.
